Data as given in patent publication US20200360437A1.

Target: NKG2D ligand MIC-A and MIC-B molecules on tumor cells
Assay: cell-based or functional assay

## fusion protein NKG2D-CD8αhinge-CD8TM-4-1BB-CD3ζ (chimeric antigen receptor expressed on NK-92 cells)
  specific lysis activity (CCK-8), A549 cells, effector:target 0.5:1: 21%
  specific lysis activity (CCK-8), A549 cells, effector:target 1:1: 30%
  specific lysis activity (CCK-8), H1299 cells, effector:target 0.5:1: 39%
  specific lysis activity (CCK-8), H1299 cells, effector:target 1:1: 80%
  specific lysis activity (CCK-8), MCF-7 cells, effector:target 0.5:1: 43%
  specific lysis activity (CCK-8), MCF-7 cells, effector:target 1:1: 56%
  specific lysis activity (CCK-8), MDMB-231 cells, effector:target 0.5:1: 7%
  specific lysis activity (CCK-8), MDMB-231 cells, effector:target 1:1: 14%
  specific lysis activity (CCK-8), SW-480 cells, effector:target 0.5:1: 8%
  specific lysis activity (CCK-8), SW-480 cells, effector:target 1:1: 16%
